Assay [1] has as its target T1, cynomolgus monkey LAMP1 at the cell surface (cynomolgus monkey, UniProt P11279 29-417 (human entry)).
T1 construct: also called cynoLAMP1; cynomolgus LAMP1
T1 chain: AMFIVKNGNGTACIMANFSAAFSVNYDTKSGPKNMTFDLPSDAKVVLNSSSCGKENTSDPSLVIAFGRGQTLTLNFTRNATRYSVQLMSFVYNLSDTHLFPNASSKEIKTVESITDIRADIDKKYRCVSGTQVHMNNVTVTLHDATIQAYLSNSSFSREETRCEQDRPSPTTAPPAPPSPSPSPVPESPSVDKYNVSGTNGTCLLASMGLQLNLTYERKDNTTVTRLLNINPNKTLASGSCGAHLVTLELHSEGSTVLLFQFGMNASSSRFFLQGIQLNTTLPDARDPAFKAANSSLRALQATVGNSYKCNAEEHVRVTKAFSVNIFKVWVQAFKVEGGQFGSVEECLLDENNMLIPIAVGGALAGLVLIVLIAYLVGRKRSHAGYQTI
Briefly: flow cytometry, HCT116 stable clones. On the procedure:
(§1) 100 μL/well of goat anti-mouse IgG conjugated with Alexa647 (Invitrogen; # A2135) was added for 45 min at 4° C. and washed three times with PBS 1% BSA. The antibody binding was evaluated after centrifugation and re-suspension of cells by adding 200 μl/well PBS 1% BSA and read using Guava® easyCyte™ 8HT Flow Cytometry System. EC50 values were estimated using BIOST@T-SPEED software.
(In general: In flow cytometry, cells or beads pass a laser one at a time.)

Assay [2] addresses T2, human LAMP1 at the cell surface (human, UniProt P11279 29-417).
T2 construct: native on tumour cells (PDX, Colo205, SW480, LS174T) or from the cloned CDS NM_005561.3 in HEK293 and HCT116; signal peptide 1-28 left out; also called huLAMP1; full length human LAMP1
T2 sequence: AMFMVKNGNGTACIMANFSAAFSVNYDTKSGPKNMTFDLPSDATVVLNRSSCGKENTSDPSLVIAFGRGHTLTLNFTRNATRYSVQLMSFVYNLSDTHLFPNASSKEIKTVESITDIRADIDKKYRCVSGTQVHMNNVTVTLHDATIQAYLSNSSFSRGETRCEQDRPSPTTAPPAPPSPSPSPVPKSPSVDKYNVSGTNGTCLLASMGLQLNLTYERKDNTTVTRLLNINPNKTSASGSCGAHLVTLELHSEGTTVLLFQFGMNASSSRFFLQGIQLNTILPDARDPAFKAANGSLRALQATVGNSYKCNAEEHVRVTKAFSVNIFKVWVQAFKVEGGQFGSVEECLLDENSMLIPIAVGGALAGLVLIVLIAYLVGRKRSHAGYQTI
Kind of assay: flow cytometry, HCT116 stable clones. On the procedure:
as §1

The next assay has as its target T3, LAMP1_mseq11_ΔGYQTI (human; mouse, UniProt P11279 29-412).
T3 construct: on cells; also called pXL5995
T3 chain: T2 sequence with N153S, S154G, S155N, R158K, G159E, G385A, Y386A, Q387A, T388A, I389A
Briefly: flow cytometry, transfected 293-F cells.

For assay [3], the target named is T4, LAMP1_hL1_mL2_hL34_ΔGYQTI (human; mouse, UniProt P11279 29-412).
T4 construct: on cells; also called pXL5997
T4 chain: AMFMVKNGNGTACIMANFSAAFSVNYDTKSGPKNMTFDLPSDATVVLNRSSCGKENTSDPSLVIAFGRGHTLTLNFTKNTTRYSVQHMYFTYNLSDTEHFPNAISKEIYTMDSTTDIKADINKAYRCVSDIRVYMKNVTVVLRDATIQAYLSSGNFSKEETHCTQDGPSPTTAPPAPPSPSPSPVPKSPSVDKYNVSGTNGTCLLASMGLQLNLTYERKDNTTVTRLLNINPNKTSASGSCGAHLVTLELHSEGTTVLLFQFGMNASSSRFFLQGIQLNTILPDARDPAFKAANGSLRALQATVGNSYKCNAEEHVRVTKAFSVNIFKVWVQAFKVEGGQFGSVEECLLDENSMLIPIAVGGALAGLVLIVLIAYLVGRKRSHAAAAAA
Briefly: flow cytometry, transfected 293-F cells.

For the next assay, the target named is T5, hLAMP1_ΔGYQTI (human, UniProt P11279 29-412).
T5 construct: also called pXL5626
T5 sequence: T2 sequence with G385A, Y386A, Q387A, T388A, I389A
Kind of assay: flow cytometry, transfected 293-F cells, experiment 1.

The next assay has as its target T6, LAMP1::histag (human, UniProt P11279 29-382).
T6 construct: extracellular domain without signal peptide, C-terminal 6 His tag, made in HEK293 cells; also called recombinant human LAMP1; human LAMP1 (29-382)
T6 sequence: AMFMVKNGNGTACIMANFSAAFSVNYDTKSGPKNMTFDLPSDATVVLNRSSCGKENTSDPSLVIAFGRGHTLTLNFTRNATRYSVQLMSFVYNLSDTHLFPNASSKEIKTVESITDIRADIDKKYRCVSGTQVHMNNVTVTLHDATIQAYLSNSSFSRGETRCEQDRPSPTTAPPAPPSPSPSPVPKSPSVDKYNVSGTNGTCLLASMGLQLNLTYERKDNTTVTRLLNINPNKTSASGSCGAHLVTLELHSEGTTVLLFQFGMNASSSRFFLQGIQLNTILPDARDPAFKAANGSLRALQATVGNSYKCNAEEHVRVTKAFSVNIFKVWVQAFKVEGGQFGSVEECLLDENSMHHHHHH
Briefly: ELISA on secreted LAMP1::histag. (An ELISA detects its analyte on a solid surface through an enzyme-linked reagent.)

Where a chain is given by its changes, count along the chain named.

B1: MAb2 (antibody, mouse IgG1, kappa)
heavy: QVQLQQSAAELARPGASVKMSCKASGYTFTSYTMHWVKQRPGQGLEWIGYFNPSSGYPEYNQKFKDKTTLTADKSSNTAFIQLNSLTSEDSAVYYCSRGYYYGSRGYALDFWGQGASVTVSSAKTTPPSVYPLAPGSAAQTNSMVTLGCLVKGYFPEPVTVTWNSGSLSSGVHTFPAVLQSDLYTLSSSVTVPSSTWPSETVTCNVAHPASSTKVDKKIVPRDCGCKPCICTVPEVSSVFIFPPKPKDVLTITLTPKVTCVVVDISKDDPEVQFSWFVDDVEVHTAQTQPREEQFNSTFRSVSELPIMHQDWLNGKEFKCRVNSAAFPAPIEKTISKTKGRPKAPQVYTIPPPKEQMAKDKVSLTCMITDFFPEDITVEWQWNGQPAENYKNTQPIMDTDGSYFVYSKLNVQKSNWEAGNTFTCSVLHEGLHNHHTEKSLSHSPGK
light: NIVLTQSPVSLAVSLGQRATISCRASESVDINGNTFMHWYQQKPGQSPKLVIYAASNIESGVPARFSGSGSSTDFTFTIDPVEADDVATYYCQQNIEDPWTFGGGTKVEIKRADAAPTVSIFPPSSEQLTSGGASVVCFLNNFYPKDINVKWKIDGSERQNGVLNSWTDQDSKDSTYSMSSTLTLTKDEYERHNSYTCEATHKTSTSPIVKSFNRNEC
notes: murine monoclonal IgG, kappa, from hybridoma; also called murine MAb2
A word on the EC50: it is the concentration giving half of the maximal effect. Turning to B1, the EC50 in assay [1] was 6.6 nM; in assay [2] it was 6.3 nM.

B2: huMAb1_1 (antibody, human IgG1, kappa)
heavy: not shown
light: DIQMTQSPSSLSASVGDRVTITCKASQDIDRYMAWYQDKPGKAPRLLIHDTSTLQSGVPSRFSGSGSGRDYTLTISNLEPEDFATYYCLQYDNLWTFGGGTKVEIKRTVAAPSVFIFPPSDEQLKSGTASVVCLLNNFYPREAKVQWKVDNALQSGNSQESVTEQDSKDSTYSLSSTLTLSKADYEKHKVYACEVTHQGLSSPVTKSFNRGEC
notes: humanized, VH1-huIgG1 and VL1-huCk
For B2, the binding result (in the assay with LAMP1_mseq11_ΔGYQTI; in assay [3]) was “no binding” in each case.

B3: MAb1 (antibody, mouse IgG2a, kappa)
heavy: QVQLQQSGAELVKPGASVKMSCKASGYIFTNYNIHWVKKSPGQGLEWIGAIYPGNGDAPYSQKFKDKATLTADKSSSTTYMQLSRLTSEDSAVYYCVRANWDVAFAYWGQGTLVSVSAAKTTAPSVYPLAPVCGDTTGSSVTLGCLVKGYFPEPVTLTWNSGSLSSGVHTFPAVLQSDLYTLSSSVTVTSSTWPSQSITCNVAHPASSTKVDKKIEPRGPTIKPCPPCKCPAPNLLGGPSVFIFPPKIKDVLMISLSPIVTCVVVDVSEDDPDVQISWFVNNVEVHTAQTQTHREDYNSTLRVVSALPIQHQDWMSGKEFKCKVNNKDLPAPIERTISKPKGSVRAPQVYVLPPPEEEMTKKQVTLTCMVTDFMPEDIYVEWTNNGKTELNYKNTEPVLDSDGSYFMYSKLRVEKKNWVERNSYSCSVVHEGLHNHHTTKSFSRTPGK
light: DIQMTQSPPSLSASLGGKVTITCKASQDIDRYMAWYQDKPGKGPRLLIHDTSTLQPGIPSRFSGSGSGRDYSFSISNLEPEDIATYYCLQYDNLWTFGGGTKLEIKRADAAPTVSIFPPSSEQLTSGGASVVCFLNNFYPKDINVKWKIDGSERQNGVLNSWTDQDSKDSTYSMSSTLTLTKDEYERHNSYTCEATHKTSTSPIVKSFNRNEC
notes: murine monoclonal IgG, kappa, from hybridoma; also called murine MAb1
In turn, B3 returned a mean fluorescence with hLAMP1_ΔGYQTI of 1750. This molecule also registered an EC50 with LAMP1::histag of 0.16 nM.

Values taken from patent publication US20180142032A1 (Sanofi, published 2018).
